Measured values published in article PMC8624677 (The Journal of Cell Biology, 2021).

B1: cyt-ATL1 H435C (domain or fragment, human, UniProt Q8WXF7 1-446, looked up)
chain: MAKNRRDRNSWGGFSEKTYEWSSEEEEPVKKAGPVQVLIVKDDHSFELDETALNRILLSEAVRDKEVVAVSVAGAFRKGKSFLMDFMLRYMYNQESVDWVGDYNEPLTGFSWRGGSERETTGIQIWSEIFLINKPDGKKVAVLLMDTQGTFDSQSTLRDSATVFALSTMISSIQVYNLSQNVQEDDLQHLQLFTEYGRLAMEETFLKPFQSLIFLVRDWSFPYEFSYGADGGAKFLEKRLKVSGNQHEELQNVRKHIHSCFTNISCFLLPHPGLKVATNPNFDGKLKEIDDEFIKNLKILIPWLLSPESLDIKEINGNKITCRGLVEYFKAYIKIYQGEELPHPKSMLQATAEANNLAAVATAKDTYNKKMEEICGGDKPFLAPNDLQTKHLQLKEESVKLFRGVKKMGGEEFSRRYLQQLESEIDELYIQYIKCNDSKNIFHAAR
modifications: Cy3 maleimide on the engineered 3HB cysteine H435C
B2: cyt-DATL H410C (domain or fragment)
chain: MGGSAVQVINASEEHTFVLNEDALSEVLMRDEVKDRFVCVVSVAGAFRKGKSFLLDFFLRYMYSKYVHHDATDWLGGESDPLEGFSWRGGSERDTTGILMWSDIFLHDYPNGDKIAIILLDTQGAFDSQSTVRDCATVFALSTMLSSVQIYNLSQNIQEDDLQHLQLFTEYGRLALADTGKKPFQRLQFLVRDWSFPYEAEYGALGGDKILKRRLEVSDKQHPELQSLRRHISSCFTEVACFLMPHPGLNVATNPKFDGRLQDITPEFKSSLRSLVPMLLAPDNLVYKEISGQRVRARDLIQYFQSYMNIYKGNELPEPKSMLVATAEANHLTAVAAAKELYGQLMEEVCGGTRPYLSTAHLQTEHLRVKDKALFQFAAKRKMGGEEFTEKFRKQLEDDLEEVFTNYQACNESKN
modifications: Cy3 maleimide on the engineered 3HB cysteine H410C
B3: cyt-ATL2 H462C (also C59A, C143A, C395N, and C441A) (domain or fragment, human, UniProt Q8NHH9 1-467, looked up)
chain: MAEGDEAARGQQPHQGLWRRRRTSDPSAAVNHVSSTTSLGENYEDDDLVNSDEVMKKPAPVQIVLAHEDDHNFELDEEALEQILLQEHIRDLNIVVVSVAGAFRKGKSFLLDFMLRYMYNKDSQSWIGGNNEPLTGFTWRGGAERETTGIQVWNEVFVIDRPNGTKVAVLLMDTQGAFDSQSTIKDCATVFALSTMTSSVQVYNLSQNIQEDDLQHLQLFTEYGRLAMEEIYQKPFQTLMFLIRDWSYPYEHSYGLEGGKQFLEKRLQVKQNQHEELQNVRKHIHNCFSNLGCFLLPHPGLKVATNPSFDGRLKDIDEDFKRELRNLVPLLLAPENLVEKEISGSKVTCRDLVEYFKAYIKIYQGEELPHPKSMLQATAEANNLAAVAGARDTYNKSMEQVCGGDKPYIAPSDLERKHLDLKEVAIKQFRSVKKMGGDEFARRYQDQLEAEIEETYANFIKCNDGKN
modifications: Cy3 maleimide on the engineered 3HB cysteine H462C
B4: cyt-ATL1(1–446) N281C (domain or fragment, human, UniProt Q8WXF7 1-446, looked up)
chain: MAKNRRDRNSWGGFSEKTYEWSSEEEEPVKKAGPVQVLIVKDDHSFELDETALNRILLSEAVRDKEVVAVSVAGAFRKGKSFLMDFMLRYMYNQESVDWVGDYNEPLTGFSWRGGSERETTGIQIWSEIFLINKPDGKKVAVLLMDTQGTFDSQSTLRDSATVFALSTMISSIQVYNLSQNVQEDDLQHLQLFTEYGRLAMEETFLKPFQSLIFLVRDWSFPYEFSYGADGGAKFLEKRLKVSGNQHEELQNVRKHIHSCFTNISCFLLPHPGLKVATNPCFDGKLKEIDDEFIKNLKILIPWLLSPESLDIKEINGNKITCRGLVEYFKAYIKIYQGEELPHPKSMLQATAEANNLAAVATAKDTYNKKMEEICGGDKPFLAPNDLQTKHLQLKEESVKLFRGVKKMGGEEFSRRYLQQLESEIDELYIQYIKHNDSKNIFHAAR
modifications: Alexa Fluor 488 (donor) or 647 (acceptor) maleimide on the engineered G-domain cysteine N281C
B5: cyt-DATL(1–415) S270C (domain or fragment)
chain: MGGSAVQVINASEEHTFVLNEDALSEVLMRDEVKDRFVCVVSVAGAFRKGKSFLLDFFLRYMYSKYVHHDATDWLGGESDPLEGFSWRGGSERDTTGILMWSDIFLHDYPNGDKIAIILLDTQGAFDSQSTVRDCATVFALSTMLSSVQIYNLSQNIQEDDLQHLQLFTEYGRLALADTGKKPFQRLQFLVRDWSFPYEAEYGALGGDKILKRRLEVSDKQHPELQSLRRHISSCFTEVACFLMPHPGLNVATNPKFDGRLQDITPEFKCSLRSLVPMLLAPDNLVYKEISGQRVRARDLIQYFQSYMNIYKGNELPEPKSMLVATAEANHLTAVAAAKELYGQLMEEVCGGTRPYLSTAHLQTEHLRVKDKALFQFAAKRKMGGEEFTEKFRKQLEDDLEEVFTNYQAHNESKN
modifications: Alexa Fluor 488 (donor) or 647 (acceptor) maleimide on the engineered G-domain cysteine S270C
B6: cyt-ATL2(1–467) S308C (also C59A, C143A, C395N, and C441A) (domain or fragment, human, UniProt Q8NHH9 1-467, looked up)
chain: MAEGDEAARGQQPHQGLWRRRRTSDPSAAVNHVSSTTSLGENYEDDDLVNSDEVMKKPAPVQIVLAHEDDHNFELDEEALEQILLQEHIRDLNIVVVSVAGAFRKGKSFLLDFMLRYMYNKDSQSWIGGNNEPLTGFTWRGGAERETTGIQVWNEVFVIDRPNGTKVAVLLMDTQGAFDSQSTIKDCATVFALSTMTSSVQVYNLSQNIQEDDLQHLQLFTEYGRLAMEEIYQKPFQTLMFLIRDWSYPYEHSYGLEGGKQFLEKRLQVKQNQHEELQNVRKHIHNCFSNLGCFLLPHPGLKVATNPCFDGRLKDIDEDFKRELRNLVPLLLAPENLVEKEISGSKVTCRDLVEYFKAYIKIYQGEELPHPKSMLQATAEANNLAAVAGARDTYNKSMEQVCGGDKPYIAPSDLERKHLDLKEVAIKQFRSVKKMGGDEFARRYQDQLEAEIEETYANFIKHNDGKN
modifications: Alexa Fluor 488 (donor) or 647 (acceptor) maleimide on the engineered G-domain cysteine S308C

Molecular target: the molecule itself
Assay: PIFE

Binding result, binds:
B1
B2
B3

Molecular target: the molecule itself
Assay: FRET or BRET

Binding result, binds:
B4
B5
B6
